# Reference: US20030113711A1, “Protein kinase peptide substrate determination using peptide libraries” (priority 2001, published 2003)
# Legend:
# Assay in all cases: Kinetic evaluation of peptide substrates, varying peptide at fixed ATP (phosphocellulose filter, [γ-33P]ATP)
# Format in all cases: biochemical
# Conditions in all cases: other: ErbB-2; Km for peptide; ATP concentration >10 × Km (200 μM ATP); pH 7.5; 23.0 °C
# [1] = system: CC[C@H](C)[C@H](NC(=O)[C@H](CCC(=O)O)NC(=O)[C@H](CCC(=O)O)NC(=O)[C@H](Cc1c[nH]cn1)NC(=O)[C@H](C)NC(=O)[C@H](CCCNC(=N)N)NC(=O)CCCCCNC(=O)CCCC[C@@H]1SC[C@@H]2NC(=O)N[C@@H]21)C(=O)N[C@@H](Cc1ccc(O)cc1)C(=O)N[C@@H](Cc1c[nH]cn1)C(=O)N[C@@H](Cc1ccccc1)C(=O)N[C@@H](Cc1ccccc1)C(=O)N[C@@H](Cc1ccccc1)C(=O)N[C@@H](C)C(=O)N[C@@H](CCCCN)C(=O)N[C@@H](CCCCN)C(=O)N[C@@H](CCCCN)C(N)=O
# Procedure: (§1) Peptide sequences identified as preferred substrates for ErbB-2 using the methods described in Laboratory Example 3 were synthesized. The kcat and Km values for each peptide were determined as follows, using the kinases ErbB-2, ErbB-4, and EGFR.
# (§2) Reactions were performed in 96-well polystyrene round bottom plates in a final volume of 45 μL. Reaction mixtures contained 50 mM MOPS, pH 7.5, 10 mM MnCl2, 1 mM dithiothreitol (DTT), 200 μM ATP, 1.0 μCi [γ-^33P] ATP, and varying concentrations of peptide. The reaction was initiated by adding the purified kinase of interest and halted after 10 minutes at 23° C. (room temperature) by adding 45 μL of 0.5% phosphoric acid in water. A 75 μL aliquot of the halted reaction mixture was then transferred to MAPH phosphocellulose filter plates (Millipore, Bedford, Mass.). The plates were filtered three times with 0.2 mL of 0.5 percent phosphoric acid. Scintillation cocktail (50 μL) was added to each well, and the plate was analyzed by counting in a Packard TOPCOUNT® scintillation counter (Packard Instrument Co., Meriden, Conn.). In these assays, the concentration of ATP was greater than ten-fold higher than the Km for ATP, which permitted the kinetic data to be treated as a pseudo-first-order reaction with varying peptide concentration. All experiments were performed in quadruplicate and the average value for each data point was analyzed. The Km and Vmax values were calculated by fitting the data to the Henri-Michaelis-Menten equation by non-linear regression using SIGMAPLOT® (SPSS Science, Chicago, Ill.). kcat values were calculated using the Vmax value, and are based on the protein concentration of the enzyme preparation and an estimate of purity determined from an evaluation of a Coomassie Blue stained SDS-polyacrylamide gel.
# [2] = system: CC[C@H](C)[C@H](NC(=O)[C@H](CCC(=O)O)NC(=O)[C@H](Cc1c[nH]cn1)NC(=O)[C@H](Cc1c[nH]cn1)NC(=O)[C@H](C)NC(=O)[C@H](CCCNC(=N)N)NC(=O)CCCCCNC(=O)CCCC[C@@H]1SC[C@@H]2NC(=O)N[C@@H]21)C(=O)N[C@@H](Cc1ccc(O)cc1)C(=O)N[C@@H](Cc1c[nH]cn1)C(=O)N[C@@H](Cc1ccccc1)C(=O)N[C@@H](Cc1ccccc1)C(=O)N[C@@H](Cc1ccccc1)C(=O)N[C@@H](C)C(=O)N[C@@H](CCCCN)C(=O)N[C@@H](CCCCN)C(=O)N[C@@H](CCCCN)C(N)=O
# Procedure: as §1, §2
# [3] = system: CC[C@H](C)[C@H](NC(=O)[C@H](Cc1ccccc1)NC(=O)[C@H](Cc1c[nH]cn1)NC(=O)[C@H](Cc1ccc(O)cc1)NC(=O)[C@H](CCC(=O)O)NC(=O)[C@H](CCC(=O)O)NC(=O)[C@H](CCC(=O)O)NC(=O)[C@H](Cc1c[nH]cn1)NC(=O)[C@H](C)NC(=O)[C@H](CCCNC(=N)N)NC(=O)CCCCCNC(=O)CCCC[C@@H]1SC[C@@H]2NC(=O)N[C@@H]21)C(=O)N[C@@H](Cc1ccccc1)C(=O)N[C@@H](C)C(=O)N[C@@H](CCCCN)C(=O)N[C@@H](CCCCN)C(=O)N[C@@H](CCCCN)C(N)=O
# Procedure: as §1, §2
# [4] = system: C[C@H](NC(=O)[C@H](CCCNC(=N)N)NC(=O)CCCCCNC(=O)CCCC[C@@H]1SC[C@@H]2NC(=O)N[C@@H]21)C(=O)N[C@@H](Cc1c[nH]cn1)C(=O)N[C@@H](CCC(=O)O)C(=O)N[C@@H](CCC(=O)O)C(=O)N[C@@H](CCC(=O)O)C(=O)N[C@@H](Cc1ccc(O)cc1)C(=O)N[C@@H](Cc1c[nH]cn1)C(=O)N[C@@H](Cc1ccccc1)C(=O)N[C@@H](Cc1ccccc1)C(=O)N[C@@H](Cc1ccccc1)C(=O)N[C@@H](C)C(=O)N[C@@H](CCCCN)C(=O)N[C@@H](CCCCN)C(=O)N[C@@H](CCCCN)C(N)=O
# Procedure: as §1, §2
# [5] = system: C[C@H](NC(=O)[C@H](CCCNC(=N)N)NC(=O)CCCCCNC(=O)CCCC[C@@H]1SC[C@@H]2NC(=O)N[C@@H]21)C(=O)N[C@@H](Cc1c[nH]cn1)C(=O)N[C@@H](Cc1c[nH]cn1)C(=O)N[C@@H](CCC(=O)O)C(=O)N[C@@H](CCC(=O)O)C(=O)N[C@@H](Cc1ccc(O)cc1)C(=O)N[C@@H](Cc1c[nH]cn1)C(=O)N[C@@H](Cc1ccccc1)C(=O)N[C@@H](Cc1ccccc1)C(=O)N[C@@H](Cc1ccccc1)C(=O)N[C@@H](C)C(=O)N[C@@H](CCCCN)C(=O)N[C@@H](CCCCN)C(=O)N[C@@H](CCCCN)C(N)=O
# Procedure: as §1, §2
substance,measurement,setting,value
ErbB-2 (Homo sapiens),Km,[1],11.4 µM
same,kcat,[1],0.0967 s⁻¹
same,kcat/Km,[1],8500 M⁻¹ s⁻¹
same,Km,[2],66.6 µM
same,kcat,[2],0.173 s⁻¹
same,kcat/Km,[2],2670 M⁻¹ s⁻¹
same,Km,[3],8.6 µM
same,kcat,[3],0.0333 s⁻¹
same,kcat/Km,[3],3830 M⁻¹ s⁻¹
same,Km,[4],6.8 µM
same,kcat,[4],0.0127 s⁻¹
same,kcat/Km,[4],1830 M⁻¹ s⁻¹
same,Km,[5],14.7 µM
same,kcat,[5],0.09 s⁻¹
same,kcat/Km,[5],6170 M⁻¹ s⁻¹
